What was measured:
Lactobacillus spp. = assay: MIC, sensitivity of human gut bacteria; assay type: cell-based; conditions: N 6
[1] = system: Staphylococcus epidermidis; assay: MIC, broth microdilution (CLSI M07-A9); assay type: cell-based; conditions: 11 tested
Enterococcus faecalis = assay: MIC, broth microdilution (CLSI M07-A9); assay type: cell-based; conditions: 17 tested
[2] = system: Streptococcus agalactiae, Group B; assay: MIC, broth microdilution (CLSI M07-A9); assay type: cell-based; conditions: 51 tested
[3] = system: Staphylococcus aureus (MRSA and MSSA strains); assay: Synergy time-kill assay (6 hours, combination compared to most active single agent); assay type: cell-based; conditions: ½ MIC PlySs2 or ¼ MIC vancomycin alone, up to 6 hours
Streptococcus mutans = assay: MIC, broth microdilution (CLSI M07-A9); assay type: cell-based; conditions: 12 tested
Escherichia coli = assay: MIC, broth microdilution (CLSI M07-A9); assay type: cell-based
Lactococcus spp. = assay: MIC, sensitivity of human gut bacteria; assay type: cell-based; conditions: N 3
[4] = system: MRSA strain ATCC 700699 and MSSA strain ATCC 25923; assay: microbe, parasite or virus in culture; assay type: cell-based, Staphylococcus aureus
S. aureus cocci = assay: Electron microscopy of bacteriolysis; assay type: cell-based; conditions: after only 15 seconds of treatment
Pseudomonas aeruginosa = assay: MIC, broth microdilution (CLSI M07-A9); assay type: cell-based
Enterococcus faecium = assay: MIC, broth microdilution (CLSI M07-A9); assay type: cell-based; conditions: 5 tested
Streptococcus pneumoniae = assay: MIC, broth microdilution (CLSI M07-A9); assay type: cell-based; conditions: 26 tested
Staphylococcus aureus = assay: MIC, broth microdilution (CLSI M07-A9); assay type: cell-based; conditions: for MIC90 / MIC90 [uM]: with reducing agent
MRSA strain 269 (MW2) = assay: Combination MIC study in the presence of 15% surfactant (Survanta); assay type: cell-based, Staphylococcus aureus; conditions: PlySs2 plus daptomycin
MRSA = assay: Murine bacteremia model, MRSA CFUs in the blood; assay type: in vivo, mice; conditions: 5.25 mg/kg PlySs2 at 2-hours post-infection
MRSA S. aureus strains = assay: Dual agent MIC assay (PlySs2 and daptomycin together, broth microdilution); assay type: cell-based; conditions: for MIC combo: PlySs2 and daptomycin combined; for MIC alone: single-agent
Proteus mirabilis = assay: MIC, sensitivity of human gut bacteria; assay type: cell-based; conditions: N 2
Acinetobacter baumannii = assay: MIC, broth microdilution (CLSI M07-A9); assay type: cell-based; conditions: 8 tested
Listeria monocytogenes = assay: MIC, broth microdilution (CLSI M07-A9); assay type: cell-based; conditions: 12 tested
[5] = system: Staphylococcus aureus (MRSA and MSSA strains); assay: Time kill assay, single agents at 1×MIC (CLSI); assay type: cell-based
Bacillus cereus = assay: MIC, broth microdilution (CLSI M07-A9); assay type: cell-based; conditions: 10 tested
[6] = system: Streptococcus pyogenes, Group A; assay: MIC, broth microdilution (CLSI M07-A9); assay type: cell-based; conditions: 54 tested
Klebsiella spp. = assay: MIC, sensitivity of human gut bacteria; assay type: cell-based; conditions: N 8

B1: PlySs2: bacteriophage lysin derived from Streptococcus suis, amino acid sequence of FIG. 29 (SEQ ID NO: 1), N-terminal CHAP and C-terminal SH3 domain (protein, listed as Streptococcus suis)
chain: MTTVNEALNNVRAQVGSGVSVGNGECYALASWYERMISPDATVGLGAGVGWVSGAIGDTISAKNIGSSYNWQANGWTVSTSGPFKAGQIVTLGATPGNPYGHVVIVEAVDGDRLTILEQNYGGKRYPVRNYYSAASYRQQVVHYITPPGTVAQSAPNLAGSRSYRETGTMTVTVDALNVRRAPNTSGEIVAVYKRGESFDYDTVIIDVNGYVWVSYIGGSGKRNYVATGATKDGKRFGNAWGTFK
CF-301 MIC (Lactobacillus spp.): >512 µg/mL | MIC 50% [1]: 128 µg/mL | MIC 90% [1]: 512 µg/mL | MIC Range [1]: 4 to 512 µg/mL | MIC 50% (Enterococcus faecalis): >512 µg/mL | MIC 90% (Enterococcus faecalis): >512 µg/mL | MIC 50% [2]: 8 µg/mL | MIC 90% [2]: 16 µg/mL | MIC Range [2]: 1 to 64 µg/mL | effectiveness alone at sub-MIC doses [3]: ineffective or poorly effective | MIC 50% (Streptococcus mutans): 64 µg/mL | MIC 90% (Streptococcus mutans): 256 µg/mL | MIC Range (Streptococcus mutans): 2 to 256 µg/mL | MIC 50% (Escherichia coli; 6 tested): >512 µg/mL | MIC 90% (Escherichia coli; 6 tested): >512 µg/mL | MIC Range (Escherichia coli; 6 tested): >512 µg/mL | CF-301 MIC (Escherichia coli; human gut bacteria, N 10): >512 µg/mL | CF-301 MIC (Lactococcus spp.): >512 µg/mL | MIC in daptomycin resistant clones ([4]; over 21 days of in vitro growth): 2 to 4 µg/mL | MIC before daptomycin resistance selection ([4]; start of serial passage): 8 µg/mL | bacteriolysis by electron microscopy (S. aureus cocci): extensive bacteriolysis | MIC 50% (Pseudomonas aeruginosa; 5 tested): >512 µg/mL | MIC 90% (Pseudomonas aeruginosa; 5 tested): >512 µg/mL | MIC Range (Pseudomonas aeruginosa; 5 tested): >512 µg/mL | CF-301 MIC (Pseudomonas aeruginosa; human gut bacteria, N 11): >512 µg/mL | MIC 50% (Enterococcus faecium): >512 µg/mL | MIC 90% (Enterococcus faecium): >512 µg/mL | MIC 50% (Streptococcus pneumoniae): 16 µg/mL | MIC 90% (Streptococcus pneumoniae): 64 µg/mL | MIC Range (Streptococcus pneumoniae): 1 to 64 µg/mL | MIC90 (Staphylococcus aureus; DRSA (n = 8)): 4 | MIC90 [uM] (Staphylococcus aureus; DRSA (n = 8)): 0.15 µM | MIC 90% (Staphylococcus aureus; Daptomycin-resistant (8)): 4 | MIC90 (Staphylococcus aureus; LRSA (n = 5)): 2 | MIC90 [uM] (Staphylococcus aureus; LRSA (n = 5)): 0.08 µM | MIC 90% (Staphylococcus aureus; Linezolid-resistant (5)): 2 | MIC90 (Staphylococcus aureus; MRSA (n = 45)): 4 | MIC90 [uM] (Staphylococcus aureus; MRSA (n = 45)): 0.15 µM | MIC90 (Staphylococcus aureus; MSSA (n-28)): 4 | MIC90 [uM] (Staphylococcus aureus; MSSA (n-28)): 0.15 µM | MIC 50% (Staphylococcus aureus; Methicillin resistant (120)): 4 µg/mL | MIC 90% (Staphylococcus aureus; Methicillin resistant (120)): 8 µg/mL | MIC Range (Staphylococcus aureus; Methicillin resistant (120)): 1 to 16 µg/mL | MIC 50% (Staphylococcus aureus; Methicillin susceptible (103)): 4 µg/mL | MIC 90% (Staphylococcus aureus; Methicillin susceptible (103)): 8 µg/mL | MIC Range (Staphylococcus aureus; Methicillin susceptible (103)): 1 to 16 µg/mL | MIC90 (Staphylococcus aureus; VISA (n = 10)): 32 | MIC90 [uM] (Staphylococcus aureus; VISA (n = 10)): 1.2 µM | MIC90 (Staphylococcus aureus; VRSA (n = 14)): 2 | MIC90 [uM] (Staphylococcus aureus; VRSA (n = 14)): 0.08 µM | MIC 90% (Staphylococcus aureus; Vancomycin-intermediate (31)): 32 | MIC 90% (Staphylococcus aureus; Vancomycin-resistant (14)): 4 | MIC (Staphylococcus aureus; all strains tested including 103 MSSA and 120 MRSA isolates): 8 µg/mL | MIC (Staphylococcus aureus; strain MW2, without DTT): 32 µg/mL | effective concentration in combination as fraction of MIC (MRSA strain 269 (MW2)): ⅛ | most dilute concentration in combination that still inhibits growth (MRSA strain 269 (MW2)): 2 µg/mL | decrease in CFUs in blood (MRSA; in 15 minutes): 0.5 log10 | decrease in CFUs in blood (MRSA; within 60 minutes of treatment): 2 log | Fold reduction (MRSA S. aureus strains; MRSA strain 223): 4 | MIC combo (MRSA S. aureus strains; MRSA strain 223): 0.5 µg/mL | MIC alone (MRSA S. aureus strains; MRSA strain 223): 2 µg/mL | Fold reduction (MRSA S. aureus strains; MRSA strain 241): 2 | MIC combo (MRSA S. aureus strains; MRSA strain 241): 2 µg/mL | MIC alone (MRSA S. aureus strains; MRSA strain 241): 4 µg/mL | Fold reduction (MRSA S. aureus strains; MRSA strain 263): 4 | MIC combo (MRSA S. aureus strains; MRSA strain 263): 2 µg/mL | MIC alone (MRSA S. aureus strains; MRSA strain 263): 8 µg/mL | Fold reduction (MRSA S. aureus strains; MRSA strain 269 (MW2)): 4 | MIC combo (MRSA S. aureus strains; MRSA strain 269 (MW2)): 2 µg/mL | MIC alone (MRSA S. aureus strains; MRSA strain 269 (MW2)): 8 µg/mL | Fold reduction (MRSA S. aureus strains; MRSA strain 270): 4 | MIC combo (MRSA S. aureus strains; MRSA strain 270): 2 µg/mL | MIC alone (MRSA S. aureus strains; MRSA strain 270): 8 µg/mL | Fold reduction (MRSA S. aureus strains; MRSA strain 553): 2 | MIC combo (MRSA S. aureus strains; MRSA strain 553): 1 µg/mL | MIC alone (MRSA S. aureus strains; MRSA strain 553): 2 µg/mL | Fold reduction (MRSA S. aureus strains; MRSA strain 650): 2 | MIC combo (MRSA S. aureus strains; MRSA strain 650): 4 µg/mL | MIC alone (MRSA S. aureus strains; MRSA strain 650): 8 µg/mL | Fold reduction (MRSA S. aureus strains; MRSA strain 827): 2 | MIC combo (MRSA S. aureus strains; MRSA strain 827): 4 µg/mL | MIC alone (MRSA S. aureus strains; MRSA strain 827): 8 µg/mL | Fold reduction (MRSA S. aureus strains; MRSA strain 828): 4 | MIC combo (MRSA S. aureus strains; MRSA strain 828): 2 µg/mL | MIC alone (MRSA S. aureus strains; MRSA strain 828): 8 µg/mL | Fold reduction (MRSA S. aureus strains; MRSA strain 829): 2 | MIC combo (MRSA S. aureus strains; MRSA strain 829): 4 µg/mL | MIC alone (MRSA S. aureus strains; MRSA strain 829): 8 µg/mL | Fold reduction (MRSA S. aureus strains; MRSA strain 830): 2 | MIC combo (MRSA S. aureus strains; MRSA strain 830): 2 µg/mL | MIC alone (MRSA S. aureus strains; MRSA strain 830): 4 µg/mL | Fold reduction (MRSA S. aureus strains; MRSA strain 833): 4 | MIC combo (MRSA S. aureus strains; MRSA strain 833): 2 µg/mL | MIC alone (MRSA S. aureus strains; MRSA strain 833): 8 µg/mL | fold reduction in the effective MIC (MRSA S. aureus strains; PlySs2 and daptomycin together, a dozen MRSA strains): 2-4 fold | CF-301 MIC (Proteus mirabilis): >512 µg/mL | MIC 50% (Acinetobacter baumannii): >512 µg/mL | MIC 90% (Acinetobacter baumannii): >512 µg/mL | MIC Range (Acinetobacter baumannii): >512 µg/mL | MIC 50% (Listeria monocytogenes): 128 µg/mL | MIC 90% (Listeria monocytogenes): 512 µg/mL | MIC Range (Listeria monocytogenes): 1 to 512 µg/mL | time to reach bactericidal levels (≥3-log10 reduction in CFUs) ([5]; 1×MIC, 20 MSSA and 42 MRSA strains): ≤ 30 minutes | maximal kill (log reduction) ([5]; all MRSA and MSSA strains tested, generally within the first hour of incubation): ≥ 3 log | MIC 50% (Bacillus cereus): >512 µg/mL | MIC 90% (Bacillus cereus): >512 µg/mL | MIC Range (Bacillus cereus): >512 µg/mL | MIC 50% [6]: 2 µg/mL | MIC 90% [6]: 8 µg/mL | MIC Range [6]: 0.5 to 8 µg/mL | CF-301 MIC (Klebsiella spp.): >512 µg/mL
